Numbering of substitutions follows the chain as printed. Names and notes keep the numbering of the source.

B1: His6-Fbp1ΔP2 (enzyme, yeast (S. cerevisiae), UniProt P09201 1-348, looked up)
chain: MTLVNGPRRDSTEGFDTDIITLPRFIIEHQKQFKNATGDFTLVLNALQFAFKFVSHTIRRAELVNLVGLAGASNFTGDQQKKLDVLGDEIFINAMRASGIIKVLVSEEQEDLIVFPTNTGSYAVCCDPIDGSSNLDAGVSVGTIASIFRLLPDSSGTINDVLRCGKEMVAACYAMYGSSTHLVLTLGDGVDGFTLDTNLGEFILTHPNLRIPPQKAIYSINEGNTLYWNETIRTFIEKVKQPQADNNNKPFSARYVGSMVADVHRTFLYGGLFAYPCDKKSPNGKLRLLYEAFPMAFLMEQAGGKAVNDRGERILDLVPSHIHDKSSIWLGSSGEIDKFLDHIGKSQ
notes: Fbp1, yeast gluconeogenic enzyme, proline 2 deleted; the initiator methionine is counted as residue 1; also called Fbp1P2Δ; source: E. coli expression, purified; not shown: His6, N-terminal, kept
B2: His6-Fbp1 P2A (enzyme, yeast (S. cerevisiae), UniProt P09201 1-348, looked up)
chain: MATLVNGPRRDSTEGFDTDIITLPRFIIEHQKQFKNATGDFTLVLNALQFAFKFVSHTIRRAELVNLVGLAGASNFTGDQQKKLDVLGDEIFINAMRASGIIKVLVSEEQEDLIVFPTNTGSYAVCCDPIDGSSNLDAGVSVGTIASIFRLLPDSSGTINDVLRCGKEMVAACYAMYGSSTHLVLTLGDGVDGFTLDTNLGEFILTHPNLRIPPQKAIYSINEGNTLYWNETIRTFIEKVKQPQADNNNKPFSARYVGSMVADVHRTFLYGGLFAYPCDKKSPNGKLRLLYEAFPMAFLMEQAGGKAVNDRGERILDLVPSHIHDKSSIWLGSSGEIDKFLDHIGKSQ
notes: Fbp1, yeast gluconeogenic enzyme, P2A; the initiator methionine is counted as residue 1; source: E. coli expression, purified; not shown: His6, N-terminal, kept
B3: His6-Fbp1 (enzyme, yeast (S. cerevisiae), UniProt P09201 1-348, looked up)
chain: B2 chain with A2P
notes: Fbp1, yeast gluconeogenic enzyme; the initiator methionine is present in the purified protein and is counted as residue 1; also called wild type His6-Fbp1; not shown: His6, N-terminal, kept
B4: His6-Fbp1^P2A,S12A,T13A (enzyme, yeast (S. cerevisiae), UniProt P09201 1-348, looked up)
chain: B2 chain with S12A, T13A
notes: Fbp1, yeast gluconeogenic enzyme, P2A,S12A,T13A; the initiator methionine is counted as residue 1; source: E. coli expression, purified; not shown: His6, N-terminal, kept
B5: GST-Fes1^A79R,R195A (natural protein, yeast (S. cerevisiae), UniProt P38260 1-290, looked up)
chain: MEKLLQWSIANSQGDKEAMARAGQPDPKLLQQLFGGGGPDDPTLMKESMAVIMNPEVDLETKLVAFDNFEMLIENLDNRNNIENLKLWEPLLDVLVQTKDEELRAAALSIIGTAVQNNLDSQNNFMKYDNGLRSLIEIASDKTKPLDVRTKAFYALSNLIRNHKDISEKFFKLNGLDCIAPVLSDNTAKPKLKMAAIALLTAYLSSVKIDENIISVLRKDGVIESTIECLSDESNLNIIDRVLSFLSHLISSGIKFNEQELHKLNEGYKHIEPLKDRLNEDDYLAVKYVL
notes: Fes1, yeast Hsp70 nucleotide exchange factor, double mutant A79R,R195A; also called Fes1RA; RA; source: E. coli expression, purified; not shown: GST, N-terminal, kept

Assay in all cases: pull-down; His6-Fbp1 (wild type or mutant) pulled down on Talon metal affinity resin; reactions with two or all three proteins; 6 μg each of His6-Fbp1 (1.6 μM), Hsp70 (0.9 μM) and GST-Fes1 (1.09 μM), with or without ATP, ADP or AMP (2.5 mM); 50 mM Tris-HCl pH 7.5, 150 mM NaCl, 2% glycerol, 5 mM MgCl2; 30 min at 4°C; washed with 5 mM imidazole, eluted with 250 mM imidazole; stained SDS-PAGE gels, bands quantified …
What all share (details): both partners purified

In one assay the target is T1, Ssa2 (yeast (S. cerevisiae), UniProt P10592 1-639).
T1 construct: Ssa2, yeast cytosolic Hsp70; non-tagged; also called Hsp70; source: E. coli Rosetta 2(DE3), purified as described [51]

Another assay has as its target T2, Ssa1 (yeast (S. cerevisiae), UniProt P10591 1-642).
T2 construct: Ssa1, yeast cytosolic Hsp70; non-tagged; also called Hsp70; source: E. coli Rosetta 2(DE3), purified as described [51]

In the assay “His6-Fbp1” the target is B3.

T2 sequence (P10591 whole entry): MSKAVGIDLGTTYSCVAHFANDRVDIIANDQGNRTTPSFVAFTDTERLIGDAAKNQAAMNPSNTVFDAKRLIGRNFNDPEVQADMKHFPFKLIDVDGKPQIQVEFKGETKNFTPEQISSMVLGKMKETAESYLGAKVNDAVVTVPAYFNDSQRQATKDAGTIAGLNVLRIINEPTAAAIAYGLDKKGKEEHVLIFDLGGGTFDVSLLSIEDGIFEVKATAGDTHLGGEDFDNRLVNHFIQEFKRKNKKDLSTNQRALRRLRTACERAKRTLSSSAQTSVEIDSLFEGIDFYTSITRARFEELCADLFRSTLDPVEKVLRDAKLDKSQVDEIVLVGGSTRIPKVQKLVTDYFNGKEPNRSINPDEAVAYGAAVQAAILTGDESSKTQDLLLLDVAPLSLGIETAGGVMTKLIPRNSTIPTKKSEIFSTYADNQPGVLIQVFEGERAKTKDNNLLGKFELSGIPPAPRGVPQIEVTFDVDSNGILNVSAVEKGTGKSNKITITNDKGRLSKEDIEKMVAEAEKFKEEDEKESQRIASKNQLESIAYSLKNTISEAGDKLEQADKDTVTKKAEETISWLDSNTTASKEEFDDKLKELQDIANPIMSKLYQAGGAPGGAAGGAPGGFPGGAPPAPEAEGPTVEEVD
T1 sequence (P10592 whole entry): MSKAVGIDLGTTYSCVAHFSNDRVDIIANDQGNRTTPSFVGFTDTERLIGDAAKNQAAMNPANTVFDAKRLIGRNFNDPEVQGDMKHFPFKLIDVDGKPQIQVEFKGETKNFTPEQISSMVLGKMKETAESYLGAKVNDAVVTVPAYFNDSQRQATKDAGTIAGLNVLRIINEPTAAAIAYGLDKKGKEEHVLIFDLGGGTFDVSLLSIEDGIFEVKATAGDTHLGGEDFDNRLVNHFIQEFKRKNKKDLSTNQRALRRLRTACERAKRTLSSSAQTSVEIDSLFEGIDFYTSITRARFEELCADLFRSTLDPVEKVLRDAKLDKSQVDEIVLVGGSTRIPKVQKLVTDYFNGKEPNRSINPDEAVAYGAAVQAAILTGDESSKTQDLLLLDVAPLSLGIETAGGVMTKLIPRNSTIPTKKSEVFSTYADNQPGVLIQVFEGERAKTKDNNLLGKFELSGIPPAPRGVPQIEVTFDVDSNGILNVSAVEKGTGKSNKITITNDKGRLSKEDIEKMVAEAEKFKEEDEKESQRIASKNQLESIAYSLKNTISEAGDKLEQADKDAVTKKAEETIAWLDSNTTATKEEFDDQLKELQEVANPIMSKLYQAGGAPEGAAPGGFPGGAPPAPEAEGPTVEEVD

As to B1, the binding result with Ssa2 and with Ssa1 was “binds” each time.
As to B2, the binding result in the assay with Ssa2 and in the assay with Ssa1 was “binds” in each case.
As to B3, the binding result in the assay with Ssa2 and with Ssa1 was “binds” throughout.
For B4, the binding result in the assay with Ssa2 and with Ssa1 was “binds” in each case.
Regarding B5, in the assay with His6-Fbp1, the “ratio of amounts Fes1^A79R,R195A/Ssa1 pulled down by Fbp1, no nucleotide” value came out at 1.7; the “ratio of amounts Fes1^A79R,R195A/Ssa1 pulled down by Fbp1, with ADP” value was determined as 5; the “ratio of amounts Fes1^A79R,R195A/Ssa1 pulled down by Fbp1, with AMP” value was 3.3; the “ratio of amounts Fes1^A79R,R195A/Ssa1 pulled down by Fbp1, with ATP” value is 6.4. In the assay with His6-Fbp1, the “ratio of amounts Fes1^A79R,R195A/Ssa2 pulled down by Fbp1, no nucleotide” value amounted to 2.4; the “ratio of amounts Fes1^A79R,R195A/Ssa2 pulled down by Fbp1, with ADP” value worked out at 4.5; the “ratio of amounts Fes1^A79R,R195A/Ssa2 pulled down by Fbp1, with AMP” value was determined as 1.9; the “ratio of amounts Fes1^A79R,R195A/Ssa2 pulled down by Fbp1, with ATP” value came out at 4.3.

The values are drawn from PMC6615629, “Hsp70-nucleotide exchange factor (NEF) Fes1 has non-NEF roles in degradation of gluconeogenic enzymes and cell wall integrity” (PLoS Genetics, 2019).
